From paper PMC10624691, “HSPA8 acts as an amyloidase to suppress necroptosis by inhibiting and reversing functional amyloid formation” (Cell Research, 2023) come the findings set out here.

Data set [1] deals with the molecule itself. The experiment in a line: seeded fibril growth assay (ThT fluorescence, negative-stain EM, pelleting); sonicated fibril seeds (0.5 uM) with monomers (5 uM), with or without HSPA8 (5 uM); 30 C by the methods, 37 C for 2 h by the legend of Fig. 3c; fibrils pelleted at 12,000 g.
In data set [2] the target is T1, recombinant hHSPA8-CT (C-terminal fragment 385-647, SBD; 6xHis-Sumo) (human, UniProt P11142 385-646).
T1 construct: human HSPA8 C-terminal fragment, residues 385-647 as printed; also called HSPA8-SBD; HSPA8 SBD domain; source: E. coli BL21 (DE3), purified (Ni-NTA, Superdex 200)
T1 sequence (P11142 385-646): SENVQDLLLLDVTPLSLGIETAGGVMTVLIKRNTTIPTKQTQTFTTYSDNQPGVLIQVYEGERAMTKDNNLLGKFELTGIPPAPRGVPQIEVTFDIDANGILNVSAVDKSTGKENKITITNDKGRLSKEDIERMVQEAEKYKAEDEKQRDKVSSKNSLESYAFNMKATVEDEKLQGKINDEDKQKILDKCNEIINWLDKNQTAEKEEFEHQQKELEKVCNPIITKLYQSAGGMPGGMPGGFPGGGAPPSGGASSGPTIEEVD
The data set can be described thus: negative staining immunogold EM; RIP3 fibrils with HSPA8-SBD on grids; anti-HSPA8 antibody 1:100, anti-rabbit gold-conjugated antibody. Conditions: both partners purified.

For data set [3], the target named is T2, GST-tagged HSPA8-SBD domain (GST-HSPA8-SBD 385-647) ( (human or mouse cDNA cloned), UniProt P11142 385-646).
T2 construct: The plasmid methods name only 6xHis-Sumo constructs for E. coli; the GST construct is not described there; source: E. coli, purified
T2 sequence (P11142 385-646): as above
The experiment in a line: pull-down; His pull-down on Ni-NTA; His-Sumo-RIP3(388-518)-4A as bait, GST-HSPA8-SBD as prey; mixed 1:1 (50 uM each) for 6 h at 4 C. Conditions: both partners purified.

B1: RIP1(497-582) (domain or fragment, human, UniProt Q13546 497-582, looked up)
chain: MPSLHNIPVPETNYLGNTPTMPFSSLPPTDESIKYTIYNSTGIQIGAYNYMEIGGTSSSLLDSTNTNFKEEPAAKYQAIFDNTTSL
notes: the reagents paragraph prints 498-582; two first limits printed (497 and 498); also called RIP1_((498-582)); source: recombinant, generated previously
On to B1, for which the binding result in data set [1] is reported as “binds”.

B2: hRIP3(388-518) tagged with 6xHis-Sumo (RIP3 fibrils of Fig. 4) (domain or fragment, human, UniProt Q9Y572 388-518, looked up)
chain: SSDSMAQPPQTPETSTFRNQMPSPTSTGTPSPGPRGNQGAERQGMNWSCRTPEPNPVTGRPLVNIYNCSGVQVGDNNYLTMQQTTALPTWGLAPSGKGRGLQHPPPVGSQEGPKDPEAWSRPQGWYNHSGK
notes: human RIP3 residues 388-518; also called RIP3 amyloids; source: E. coli BL21 (DE3), purified (Ni-NTA, Superdex 200)
Regarding B2, the binding result in data set [2] is on record as “binds”.

B3: His-Sumo-RIP3(388-518)-4A (domain or fragment, human, UniProt Q9Y572 388-518, looked up)
chain: SSDSMAQPPQTPETSTFRNQMPSPTSTGTPSPGPRGNQGAERQGMNWSCRTPEPNPVTGRPLVNIYNCSGAAAADNNYLTMQQTTALPTWGLAPSGKGRGLQHPPPVGSQEGPKDPEAWSRPQGWYNHSGK
notes: human RIP3 residues 388-518 with the RHIM core VQVG replaced by AAAA; also called His-tagged RIP3-RHIM-4A; His-tagged RHIM-4A-containing RIP3 (388-518 aa); source: E. coli, purified
In the case of B3, the binding result in data set [3] is listed as “binds”.

B4: TRIF(677-698) (peptide, UniProt Q8IUC6 677-698, looked up)
peptide: QPLIIHHAQMVQLGLNNHMWNQ
notes: TRIF residues 677-698; source: custom-made by WuXi AppTec
As to B4, the binding result in data set [1] is “binds”.
